Data set [1] concerns the molecule itself. The data set can be described thus: SEC.
Data set [2] concerns the molecule itself. In words: crystal structure.

Residue numbers refer to the chain shown, from its start. Names and notes keep the numbering of the source.

B1: ArnB (wild type) of Salmonella typhimurium (enzyme, S. typhimurium, UniProt Q8ZNF3 1-385, looked up)
chain: MAEGKMMSDFLPFSRPAMGAEELAAVKTVLDSGWITTGPKNQELEAAFCRLTGNQYAVAVSSATAGMHIALMALGIGEGDEVITPSMTWVSTLNMIVLLGANPVMVDVDRDTLMVTPEHIEAAITPQTKAIIPVHYAGAPADLDAIYALGERYGIPVIEDAAHATGTSYKGRHIGARGTAIFSFHAIKNITCAEGGIVVTDNPQFADKLRSLKFHGLGVDAWDRQSGGRAPQAEVLAPGYKYNLPDLNAAIALAQLQKLDALNARRAAIAAQYHQAMADLPFQPLSLPSWEHIHAWHLFIIRVDEARCGITRDALMASLKTKGIGTGLHFRAAHTQKYYRERFPTLTLPDTEWNSERICSLPLFPDMTESDFDRVITALHQIAGQ
For the protein B1, the “stoichiometry N” value in data set [1] is 2.

B2: ArnB K188A mutant of Salmonella typhimurium (enzyme, S. typhimurium, UniProt Q8ZNF3 1-385, looked up)
chain: B1 chain with K188A
In the case of B2, the binding result in data set [2] was “binds”.

Values taken from publication PMC3985747 (Biochemistry, 2014).
